Results as given in patent US20220096608.

Target: α2-antiplasmin (UniProt P08697)
Sequence (P08697 40-491): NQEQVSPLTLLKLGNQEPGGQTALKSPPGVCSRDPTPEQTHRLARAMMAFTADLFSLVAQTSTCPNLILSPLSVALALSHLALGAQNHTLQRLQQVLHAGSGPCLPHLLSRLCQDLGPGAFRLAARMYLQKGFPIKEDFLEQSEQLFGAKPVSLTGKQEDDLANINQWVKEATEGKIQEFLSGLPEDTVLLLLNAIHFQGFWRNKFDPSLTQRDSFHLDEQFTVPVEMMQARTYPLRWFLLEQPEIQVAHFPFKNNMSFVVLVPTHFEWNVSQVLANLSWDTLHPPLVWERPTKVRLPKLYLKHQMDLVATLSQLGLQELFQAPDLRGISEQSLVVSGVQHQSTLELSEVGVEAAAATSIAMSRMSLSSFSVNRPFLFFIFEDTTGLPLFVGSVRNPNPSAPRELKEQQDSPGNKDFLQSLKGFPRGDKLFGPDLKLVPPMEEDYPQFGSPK

Chain of Mono-PEGylated Micro-plasmin variant (20 kDa PEG) E85C Catalytic Domain (SEQ ID NO. 7) (chain, as listed by the source E85C): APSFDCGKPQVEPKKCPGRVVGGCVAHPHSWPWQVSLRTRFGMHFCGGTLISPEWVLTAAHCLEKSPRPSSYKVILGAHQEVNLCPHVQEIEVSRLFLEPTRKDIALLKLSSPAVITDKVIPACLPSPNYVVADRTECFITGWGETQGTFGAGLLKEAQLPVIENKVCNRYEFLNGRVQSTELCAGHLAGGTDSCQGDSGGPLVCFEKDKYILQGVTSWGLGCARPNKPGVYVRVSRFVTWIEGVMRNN
Chain of Mono-PEGylated Micro-plasmin variant (20 kDa PEG) P86C Catalytic Domain (SEQ ID NO. 8) (chain, as listed by the source P86C): as the sequence (chain, as listed by the source E85C) above, with C85E, P86C counted along it
Chain of Mono-PEGylated Micro-plasmin variant (20 kDa PEG) V88C Catalytic Domain (SEQ ID NO. 10) (chain, as listed by the source V88C): as the sequence (chain, as listed by the source E85C) above, with C85E, V88C counted along it
Chain of Bi-PEGylated Micro-plasmin variant (20 kDa-20 kDa PEG) E85C-H87C Catalytic Domain (SEQ ID NO. 11) (chain, as listed by the source E85C H87C): as the sequence (chain, as listed by the source E85C) above, with H87C counted along it
Chain of Mono-PEGylated Micro-plasmin variant (40 kDa PEG) E85C Catalytic Domain (SEQ ID NO. 7) (chain, as listed by the source E85C): as the sequence (chain, as listed by the source E85C) above
Chain of Mono-PEGylated Micro-plasmin variant (40 kDa PEG) P86C Catalytic Domain (SEQ ID NO. 8) (chain, as listed by the source P86C): as the sequence (chain, as listed by the source E85C) above, with C85E, P86C counted along it
Chain of Mono-PEGylated Micro-plasmin variant (40 kDa PEG) V88C Catalytic Domain (SEQ ID NO. 10) (chain, as listed by the source V88C): as the sequence (chain, as listed by the source E85C) above, with C85E, V88C counted along it

Row | Substance | In vitro Half-life (of inactivation by α2-antiplasmin)
1 | Mono-PEGylated Micro-plasmin variant (20 kDa PEG) P86C Catalytic Domain (SEQ ID NO. 8) | 6 to 7 min
2 | Mono-PEGylated Micro-plasmin variant (40 kDa PEG) E85C Catalytic Domain (SEQ ID NO. 7) | >7 min
3 | Mono-PEGylated Micro-plasmin variant (40 kDa PEG) P86C Catalytic Domain (SEQ ID NO. 8) | >7 min
4 | Mono-PEGylated Micro-plasmin variant (20 kDa PEG) E85C Catalytic Domain (SEQ ID NO. 7) | 6 to 7 min
5 | Mono-PEGylated Micro-plasmin variant (40 kDa PEG) V88C Catalytic Domain (SEQ ID NO. 10) | >7 min
6 | Mono-PEGylated Micro-plasmin variant (20 kDa PEG) V88C Catalytic Domain (SEQ ID NO. 10) | 6 to 7 min
7 | Bi-PEGylated Micro-plasmin variant (20 kDa-20 kDa PEG) E85C-H87C Catalytic Domain (SEQ ID NO. 11) | >10 min
